# Reference: paper PMC11098746 (2024)
# No end group written: not given here.
# B1: 42 (protein)
# chain: QLRFASLGDWGKDTKGQILNAKYFKQFIKNERVTFIVSPGSNFIDGVKGLNDPAWKNLYEDVYSEEKGDMYMPFFTVLGTRDWTGNYNAQLLKGQGIYIEKNGETSIEKDADATNYPKWIMPNYWYHYFTHFTVSSGPSIVKTGHKDLAAAFIFIDTWVLSSNFPYKKIHEKAWNDLKSQLSVAKKIADFIIVVGDQPIYSSGYSRGSSYLAYYLLPLLKDAEVDLYISGHDNNMEVIEDNDMAHITCGSGSMSQGKSGMKNSKSLFFSSDIGFCVHELSNNGIVTKFVSSKKGEVIYTHKLNIKKKKTLDKVNALQHFAALPNVELTDVPSSGP
# modifications: bait human Fc-tagged dimer
# B2: 58 (protein)
# chain: IQLHSVNYAPLNYIEIGDTLSNKVGELWHSHLNSFIDIVSTKVVNKLEDDLSNGNNLEKFMILLEDDADIFDASAYEGKNLALIQTEFIRKLKDKFKNSKFGQKLKKLGSKAKEKLLSLYQKHKGKLRHFFSILLKSLVIPIAVQFIRKNLNKWKQRTLEATQKLDEQSKNIAQPIINRLYNSFEDKIEEYSQENKINVEDELNALGQLDKDKQDIQKLEEQEKALLQ
# modifications: bait human Fc-tagged dimer
# B3: 23 (protein)
# chain: ENVDTFKCNYAKKKKNGHHIKRHITNDEEKKKEYSFLMLGKENEEENKENKENNQNVNKDNNDNNNNEKKNEEQNHNNEKKQEEVINNNNNNVENKKEEENHNNDKKTDEQNHVNEKKQEGENNKHKKDDTIPPEKKINKENLLEYGTHDKEGHFIPSYKTLTDEILSTNNAMEKASSFLKIACSHVMKLIEFIPESKLSSQYIKVDNKNIYLKDIAVECQNIYFNLEKFSMTLIVFNSKINKFIYSQEK
# modifications: bait human Fc-tagged dimer
# B4: 68 (protein)
# chain: LIRNSNTPQAFLIPELNNNEKNEFNNNEKNEMNNNLNNEFNNNEENCDIQKIAEEMMENLLNENDMYTNIMLSLQNRLSDDYLCSEPKYENICIHEKDKISLSFPCSNPKYEKLIHKFTFKKLCNSKAAFNNALLKSFIEEDEEQNTFSLMLKQFKILLTCVDDELKDIYKESIDLLVDLKTSITELTQKLWSGKMVNVLKKREFLITGILCELRNGNKAPLISKSLEFENLGILKMNNEELLNEAYNAFSDYYYFFPYFIQKLLEKGGMIERLIKIHENLAKYRTKDMVNKINAQSKGEVLNNEDILNKLNAYKHYTKHGATSFIQSREVKIVNQNVNNDDTTKNQQQNVNNNEKLNNNNNNNNNQQVNNNNNNNNQQVNNNNNNNNNQVNNNNNNNNNQVNNNNYNNNNQVNNNNNNNQQVNNNNNYNNQLNNNNFNNNLQVNKNDKHVPKNNHATATHTNNILYNPLYSINPEKPKDIIKLLKDLIKYLHIVKFENNEPTTNIDEEGIRKLLENSFFDLNDDILIVRLLLKPQTVILTVIQSFMLMTPSPSRDAKAYCKKALINDQLVPTNDANILSEENELVNNFATKYVLIYEKMKLQELKEMEESKLKMKYSKTNLAALQVTNPQNNKDKNDASNKNNNPNNAATPLIAVVTDLSGEKTEDIINNNVDIATLSVGVQNTFQGP
# modifications: bait human Fc-tagged dimer
# B5: 49 (protein)
# chain: SDSYSTGGNEKEKIFMDNYKYMWTYIYFLQKRIMMKKLSHPLYMSKKFILLHNPKDIEEFRIPLKDTLWSYVDRNSIKGFININLDSIFDIDLKEYYVHDKENMANSEKSEDLECIDAYVQKTNEIYYNMADTKDEAYIFICKKCKHIYKDIKECREKSMQLMIQNMKITVPQIRLKYDKKNRNNEEIIINIPVTYVLSNLLSSLKKTVTYNTDDLNNACNVLIKMLHLDLLKILYNLQYHNGIFNGITEKYLIEFRNIFVKRQKTNTEDNNDMIWEECFVLKKSIDKIMNINSFLLTKSRNRYMDYLQNRRKRYRDILFMITYNVADMNLNTYIKSIYNYIHISTKIIEDIQYIYNQEVYATFFVRTELIETYLLRNPKQLKNTCSIYIMITISWFFNQINIGMYNKNKNVYDLFKEKFSKSNVKQIINSIYTNNVENKANILQICNDAMTNTIELIKKVIKNYYKQNNVLSNYNINFAGLIKFIDIQILRMKFIQSTLEKQPLIEYDTLNDDHLNNDAIIKRENMVCMMKYISNKINTYISLLKKSDLQTIMLQNYDKYNIYLDTYFTHNENVFFCSSPGQYLIIKIFFYSFFNILNIYG
# modifications: bait human Fc-tagged dimer
# B6: 43 (protein)
# chain: LFQEYQCYGSSSNTRVLNELNYDNAGTNLYNELEMNYYGKQENWYSLKKNSRSLGENDDGNNEDNEKLRKPKHKKLKQPADGNPDPNANPNVDPN
# modifications: bait human Fc-tagged dimer
# B7: 4 (protein)
# chain: KVYQGQFYLKKNEKIHYLTKFSCNIGTCQFSIKMKLRDNIAAKLLNNYYKLNNKALKEMENDKDDGNNHNNNKYDDDNNNNNNRANKLLHMDYDNAYYVLSNQDLEYIPQRITLMQDIEQRYVNKNDKCYAFGNLKNSHMFNIPFYFKYSDLVNSKTYNLKNFINNKYSMSFNAIHSELKNNKLLQSEILNYGPILNEKNSNYAYKEIYAKTTHRVHVWFLMFDDCYDNFIRNLKLNIKTKLAYWEYLLHASKKFDISSLNDMDIKQDTSYNDFQNEETEKDIYSKENINNNNNNNMNNNMNEKKNKAIFYKSFNFDKITLLENPKRFLFLEEQFTKSEINDISFFLKYYQFKKMKNFNNMYNNLYKNGYYEQVIDYIYQNEGFHIEYEVNIFQTNKAHFSYE
# modifications: bait human Fc-tagged dimer
# B8: 5 (protein)
# chain: YNIKSGNTANNIKYVNVLDNDRDINTHSVLPEVENVIERKDIYRQINFMETFVSSNNMMHDREKHTSNDAGSYEITGIVDGMKIGHPISVALGSQYSNYFDYLQIVHLDYTNSRFSFTVGEGKYYLRTYGSTYMTPSAIKIKVPCEKCKFINSEYSGIIKIIPYETNNNLFIYNWVLQTSSPLALENINTVFSDEADLIHGNSLSEEFKIDSSAAATSLNTFYGIVLHGIWSSEYAERLLTVISEFPDCVKMSAHDKNARSKQRKNQKWILVNEDLGSFDMKMEVCEEVNCDYSAIIHVSKHAFEYSKKLVHNRGRNGRYYSRRVEKILIRALLSLDFSLFITYFQQKHGVTLLDPQYDYELITNMAGYSSNNYQSWNHNLEELVELATSWDEYPKGLQKVQGLSYLLRRKNGAKHPVYPTAPAVAFPAGSQNNAFIEFMESAFVNYVDISHLVIHEVAHFIWVNTVSKELKEKWIQIGQWYKEPLSPSEWATKLEVEFVSAYAHDKNPAEDFAESMATYVLNSKLLNSRSFDKFKWIQDNLFGGGFYITTGTHKFDVINLGNEVYYFPGKVTRVRAKVLGSPTEDKLVKIYISLLSSDGSEGCAKHGYARIFSEQQTFRDLYFHTEDRSPCSHKLYGEFTMNKHESRGRWTAESMIFTGENNIERYVGLGSFHFYLYVNNQNEDVEKPIPLLDSISIYTHNAAETNDALLRLHVMVLENELIKEHGGPYASFAAHENKAYSYESRTYKMYPPEFNTLMLKADYFIRDINTRGFREVNMDSCKSYTNMDTRNLKCFQVLNPVTIPKYCIGSTYFLRQVSIEDIAGNLETVNIASDKYSARLHPIGVRDKQKPVVSNVRVSSKPANEYHDGETIVSLSFNVHDNLAGVYYIFVYLRDPHGGKHRSDIDRASLPTGTENKQINHKILLPKGSMGGTWMLEEIKAVDSCKNEARNIYTHSVYVQND
# modifications: bait human Fc-tagged dimer
# B9: ADP382 (protein)
# chain: TYDDGICKSSDCIKSAARLIQNMDATTEPCTDFFKYACGGWLKRNVIPETSSRYGNFDILRDELEVVLKDVLQEPKTEDIVAVQKAKALYRSCINESAIDSRGGEPLLKLLPDIYGWPVATENWEQKYGASWTAEKAIAQLNSKYGKKVLINLFVGTDDKNSVNHVIHIDQPRLGLPSRDYYECTGIYKEACTAYVDFMISVARLIRQEERLPIDENQLALEMNKVMELEKEIANATAKPEDRNDPMLLYNKMTLAQIQNNFSLEINGKPFSWLNFTNEIMSTVNISITNEEDVVVYAPEYLTKLKPILTKYSARDLQNLMSWRFIMDLVSSLSRTYKESRNAFRKALYGTTSETATWRRCANYVNGNMENAVGRLYVEAAFAGESKHVVEDLIAQIREVFIQTLDDLTWMDAETKKRAEEKALAIKERIGYPDDIVSNDNKLNNEYLELNYKEDEYFENIIQNLKFSQSKQLKKLREKVDKDEWISGAAVVNAFYSSGRNQIVFPAGILQPPFFSAQQSNSLNYGGIGMVIGHEITHGFDDNGRNFNKDGDLVDWWTQQSASNFKEQSQCMVYQYGNFSWDLAGGQHLNGINTLGENIADNGGLGQAYRAYQNYIKKNGEEKLLPGLDLNHKQLFFLNFAQVWCGTYRPEYAVNSIKTDVHSPGNFRIIGTLQNSAEFSEAFHCRKNSYMNPEKKCRVW
# modifications: bait human Fc-tagged dimer
# B10: ADP362 (protein)
# chain: MARAALWLWLCALALSLQPALPQIVATNLPPEDQDGSGDDSDNFSGSGAGALQDITLSQQTPSTWKDTQLLTAIPTSPEPTGLEATAASTSTLPAGEGPKEGEAVVLPEVEPGLTAREQEATPRPRETTQLPTTHLASTTTATTAQEPATSHPHRDMQPGHHETSTPAGPSQADLHTPHTEDGGPSATERAAEDGASSQLPAAEGSGEQDFTFETSGENTAVVAVEPDRRNQSPVDQGATGASQGLLDRKEVLG
# modifications: bait human Fc-tagged dimer
# B11: ADP152 (protein)
# chain: MAPSSPRPALPALLVLLGALFPGPGNAQTSVSPSKVILPRGGSVLVTCSTSCDQPKLLGIETPLPKKELLLPGNNRKVYELSNVQEDSQPMCYSNCPDGQSTAKTFLTVYWTPERVELAPLPSWQPVGKNLTLRCQVEGGAPRANLTVVLLRGEKELKREPAVGEPAEVTTTVLVRRDHHGANFSCRTELDLRPQGLELFENTSAPYQLQTFVLPATPPQLVSPRVLEVDTQGTVVCSLDGLFPVSEAQVHLALGDQRLNPTVTYGNDSFSAKASVSVTAEDEGTQRLTCAVILGNQSQETLQTVTIYSFPAPNVILTKPEVSEGTEVTVKCEAHPRAKVTLNGVPAQPLGPRAQLLLKATPEDNGRSFSCSATLEVAGQLIHKNQTRELRVLYGPRLDERDCPGNWTWPENSQQTPMCQAWGNPLPELKCLKDGTFPLPIGESVTVTRDLEGTYLCRARSTQGEVTRKVTVNVLSP
# modifications: bait human Fc-tagged dimer
# B12: ADP378 (protein)
# chain: PAPGRPPTHNAHNWRLGQAPANWYNDTYPLSPPQRTPAGIRYRIAVIADLDTESRAQEENTWFSYLKKGYLTLSDSGDKVAVEWDKDHGVLESHLAEKGRGMELSDLIVFNGKLYSVDDRTGVVYQIEGSKAVPWVILSDGDGTVEKGFKAEWLAVKDERLYVGGLGKEWTTTTGDVVNENPEWVKVVGYKGSVDHENWVSNYNALRAAAGIQPPGYLIHESACWSDTLQRWFFLPRRASQERYSEKDDERKGANLLLSASPDFGDIAVSHVGAVVPTHGFSSFKFIPNTDDQIIVALKSEEDSGRVASYIMAFTLDGRFLLPETKIGSVKYEGIEFI
# modifications: bait human Fc-tagged dimer
# Molecular target: FGFR4 ectodomain (Homo sapiens, UniProt P22455)
# Experiment: AVEXIS normalised luminescence
row,Binder,binding score
1,B1,1.51
2,B2,0.979
3,B3,0.913
4,B4,0.952
5,B5,0.996
6,B6,1.37
7,B7,0.9
8,MNEAKEEKTNMRNNHLSRVTIEILPSDEDNDIFDINDALLDELIGINNI (also: human Fc-tagged dimer) [65],1.05
9,B8,0.798

# Molecular target: Circumsporozoite protein (CSP) (Plasmodium falciparum (isolate 3D7), UniProt Q7K740)
# Experiment: AVEXIS screen signal:noise (double-corrected)
row,Binder,binding score
1,B9,0.577
2,B10,0.594
3,B11,1.23
4,B12,1.3
